Experimental data reported in patent publication US6428997.

What was measured:
[1] = target: T1, leucyl oligopeptide of SEQ ID NO: 2
T1 chain: LFPTEPS

[2] = target: T2, methionyl oligopeptide of SEQ ID NO: 1 (Met-Phe-Pro-Thr-Glu-Pro-Ser)
T2 chain: MFPTEPS

B1: Aeromonas proteolytica (Vibrio proteolytica) aminopeptidase (protein)
chain: MPPITQQATVTAWLPQVDASQITGTISSLESFTNRFYTTTSGAQASDWIASEWQALSASLPNASVKQVSHSGYNQKSVVMTITGSEAPDEWIVIGGHLDSTIGSHTNEQSVAPGADDDASGIAAVTEVIRVLSENNFQPKRSIAFMAYAAEEVGLRGSQDLANQYKSEGKNVVSALQLDMTNYKGSAQDVVFITDYTDSNFTQYLTQLMDEYLPSLTYGFDTCGYACSDHASWHNAGYPAAMPFESKFNDYNPRIHTTQDTLANSDPTGSHAKKFTQLGLAYAIEMGSATGDTPTPGNQ
Kcat/Km [1]: 211 mM⁻¹ s⁻¹
Km [1]: 0.336 mM
kcat [1]: 70.3 s⁻¹
Kcat/Km [2]: 3.76 mM⁻¹ s⁻¹
Km [2]: 0.956 mM
kcat [2]: 3.23 s⁻¹
